Laboratory results as given in US6395526B1, “DNA polymerase” (Takara Shuzo Co., Ltd., priority 1995, dated 2002).
Entries after “also recorded” stand apart in the source; their conditions may differ.

Experiments:
Type in all cases: biochemical
[1] = test system: λ-DNA; assay: PCR with λ-DNA as a template
Protocol: In order to compare the performance of the DNA polymerase of the present invention in PCR with that of the Taq DNA polymerase, PCR was carried out with λ-DNA as a template. The reaction mixture for the DNA polymerase of the present invention had the following composition: 10 mM Tris-HCl (pH 9.2), 3.5 mM MgCl2, 75 mM KCl, 400 μM each of dATP, dCTP, dGTP and dTTP, 0.01% bovine serum albumin (BSA), and 0.1% Triton X-100. The reaction solution for the Taq DNA polymerase had the following composition: 10 mM Tris-HCl (pH 8.3), 1.5 mM MgCl2, 50 mM KCl, and 400 μM each of dATP, dCTP, dGTP and dTTP. Fifty microliters of a reaction mixture containing 5.0 ng/50 μl λ-DNA (manufactured by Takara Shuzo Co., Ltd.), 10 pmol/50 μl each of primer λ1 and primer λ11, and 3.7 units/50 μl DNA polymerase was prepared. The base sequences of the primer λ1 and the primer λ11 are shown by SEQ ID NO:8 and SEQ ID NO:9 in Sequence Listing, respectively. After, a 30-cycle PCR was carried out with the above reaction mixture, wherein one cycle is defined at 98° C. for 10 seconds and at 68° C. for 10 seconds. Five microliters of the reaction mixture was subjected to agarose gel electrophoresis, and the amplified DNA fragment was confirmed by staining with ethidium bromide.
The experiment was then carried out by changing the primer to the primer λ1 and the primer λ10. The base sequence of the primer λ10 is shown by SEQ ID NO:10 in Sequence Listing. Twenty-five microliters of a reaction mixture having a similar composition to that shown above and containing 2.5 ng of λ-DNA, 10 pmol of the primer λ1 and the primer λ10, respectively, and 3.7 units of DNA polymerase was prepared. The reaction mixture was reacted in 5 cycles under the same reaction conditions as those described above, and 5 μl of the reaction mixture was subjected to agarose gel electrophoresis and stained with ethidium bromide.

[2] = test system: 32P-labeled DNA fragment from pUC119 vector; assay: Associated exonuclease activity; details: 75° C.
Protocol: The exonuclease activity of the DNA polymerase of the present invention was assessed as follows: As a substrate for 5′→3′ exonuclease activity detection, a DNA fragment labeled with ^32P at the 5′-end was prepared by a process comprising digesting a pUC119 vector (manufactured by Takara Shuzo Co., Ltd.) with SspI (manufactured by Takara Shuzo Co., Ltd.), separating the resulting 386 bp DNA fragment by agarose gel electrophoresis, purifying the fragment, and labeling with [γ-^32P]-ATP and polynucleotide kinase. Also, as a substrate for 3′→5′ exonuclease activity detection, a DNA fragment labeled with ^32P at 3′-end was prepared by a process comprising digesting a pUC119 vector with Sau3AI, separating the resulting 341 bp DNA fragment by agarose gel electrophoresis, purifying the fragment, and carrying out a fill-in reaction using […] (manufactured by Amersham) and the Klenow fragment (manufactured by Takara Shuzo Co., Ltd.). […] The radioactivity existing in the supernatant was assayed using a liquid scintillation counter, and the amount of degradation by the exonuclease activity was calculated.
In the figure, the abscissa indicates the reaction time, and the ordinate indicates the ratio of radioactivity released into the supernatant relative to the radioactivity contained in the entire reaction mixture. […]

[3] = test system: substrate DNA (template-primer); assay: DNA polymerase activity on different forms of substrate DNA (template-primer)
Protocol: The DNA polymerase activity was assayed using calf thymus DNA (manufactured by Worthington) activated by DNase I treatment (activated DNA) as a substrate. DNA activation and assay of DNA polymerase activity were carried out by the method described in DNA Polymerase from Escherichia coli, 263-276 (authored by C. C. Richardson), published by Harper & Row, edited by D. R. Davis.
An assay of enzyme activity was carried out by the following method. Specifically, 50 μl of a reaction solution [20 mM Tris-HCl (pH 7.7), 15 mM MgCl2, 2 mM 2-mercaptoethanol, 0.2 mg/ml activated DNA, 40 μM each of dATP, dCTP, dGTP and dTTP, 60 nM [^3H]-dTTP (manufactured by Amersham)], containing a sample for assaying its activity, was prepared and reacted at 75° C. for 15 minutes. A 40 μl portion of this reaction mixture was then spotted onto a DE paper (manufactured by Whatman) and washed with 5% Na2HPO4 five times. The remaining radioactivity on the DE paper was assayed using a liquid scintillation counter. The amount of enzyme which incorporated 10 nmol of [^3H]-dTMP per 30 minutes into the substrate DNA, assayed by the above-described enzyme activity assay method, was defined as one unit of the enzyme.
Next, in order to compare the selectivity of the DNA polymerase of the present invention for different forms of substrate DNA, the following template-primer was examined. Aside from the activated DNA used for conventional assay of the activity, those prepared as substrates include a thermal-denatured DNA prepared by treating the activated DNA at 85° C. for 5 minutes; M13-HT Primer prepared by annealing a 45-base synthetic deoxyribooligonucleotide of the sequence as shown by SEQ ID NO:6 in Sequence Listing as a primer to the M13 phage single stranded DNA (M13mp18 ssDNA, manufactured by Takara Shuzo Co., Ltd.); M13-RNA Primer prepared by annealing a 17-base synthetic ribooligonucleotide of the sequence as shown by SEQ ID NO:7 in Sequence Listing as a primer to the same M13 phage single stranded DNA; Poly dA-Oligo dT prepared by mixing polydeoxyadenosine (Poly dA, manufactured by Pharmacia) and oligodeoxythymidine (Oligo dT, manufactured by Pharmacia) in a 20:1 molar ratio; and Poly A-Oligo dT prepared by mixing polyadenosine (Poly A, manufactured by Pharmacia) and oligodeoxythymidine in a 20:1 molar ratio.
The DNA polymerase activity was assayed using these substrates in place of the activated DNA. The relative activity of each substrate when the activity obtained in the case of using an activated DNA as a substrate is defined as 100 is shown in Table 1. For comparison, the Pfu DNA polymerase and the Taq DNA polymerase derived from Thermus aquaticus (TaKaRa Taq, manufactured by Takara Shuzo Co., Ltd.) were also examined in the same manner.

[4] = primer λ1 and primer λ10, 5 cycles
[5] = substrate M13-HT primer, activated DNA = 100
[6] = substrate M13-RNA primer, activated DNA = 100
[7] = substrate activated DNA (defined as 100)
[8] = substrate poly A-Oligo dT, activated DNA = 100
[9] = substrate poly dA-Oligo dT, activated DNA = 100
[10] = substrate thermal-denatured DNA, activated DNA = 100

Substance	length of DNA fragment amplified by PCR [1, 4]	3′→5′ exonuclease activity ([2]; 3′-end labeled 341 bp fragment)	5′→3′ exonuclease activity ([2]; 5′-end labeled 386 bp fragment)	Relative Activity [3, 5]	Relative Activity [3, 6]	Relative Activity [3, 7]	Relative Activity [3, 8]	Relative Activity [3, 9]	Relative Activity [3, 10]	length of DNA fragment amplified by PCR ([1]; primer λ1 and primer λ11, 30 cycles, enzyme used alone)
DNA Polymerase of the Present Invention: complex of first (ORF3, SEQ ID NO:2) and second (ORF4, SEQ ID NO:4) DNA polymerase-constituting proteins from Pyrococcus furiosus	about 15 kbp	potent; also recorded: of the same level as that of the Pfu DNA polymerase	no 5′→3′exonuclease activity was observed	170	52	100	0.085	94	340	–
Taq DNA Polymerase: Taq DNA polymerase derived from Thermus aquaticus (TaKaRa Taq, manufactured by Takara Shuzo Co., Ltd.) [reference compound]	no specific amplification was observed	–	–	90	38	100	0.063	290	130	not found
